Nine molecules from article PMC3795024, “A Structure-Guided Mutation in the Major Capsid Protein Retargets BK Polyomavirus” (PLoS Pathogens, 2013) can be followed below.

For assay [1], the target named is BKPyV VP1 pentamer (30-300) S274A/T276A (BK polyomavirus (BKPyV)). Description: SEC; gel filtration of purified mutant pentamers; data not shown. Background: SEC sorts molecules by how far they enter the pores of the column.
For assay [2], the target named is BKPyV VP1 pentamer (30-300) T276A (BK polyomavirus (BKPyV)). The description is as above.
The target in assay [3] is BKPyV VP1 pentamer (30-300) F75V (BK polyomavirus (BKPyV)). Described as above.
In assay [4] the target is T1, SV40 VP1 (Betapolyomavirus macacae, UniProt P03087).
T1 construct: recombinant VP1 pentamer, detected with anti-poly-histidine antibody
The experiment in a line: STD NMR. The assay is classed as binding. Particulars: 19-22 µM protein, 1 mM ligand, pH 7.5, 283 K, D2O.

Assay [5] addresses BKPyV VP1 pentamer (amino acids 30-300 of BKPyV VP1, His-tag cleaved) (BK polyomavirus (BKPyV)). The experiment in a line: crystal structure; sitting drop vapor diffusion at 20°C, 16–18% PEG 3,350, 0.1 M HEPES pH 7.5, 0.25 M LiCl, protein with 20 mM DTT; unliganded and soaked with 20 mM GD3 oligosaccharide.
For assay [6], the target named is BKPyV VP1 pentamer (30-300) H138A (BK polyomavirus (BKPyV)). The experiment in a line: SEC; gel filtration of purified mutant pentamers; data not shown.
The target of assay [7] is BKPyV VP1 pentamer (30-300) S274A (BK polyomavirus (BKPyV)). The description is as above.
Assay [8] concerns the target BKPyV VP1 pentamer (30-300) L62W (BK polyomavirus (BKPyV)). The description is as above.
Assay [9] concerns the target BKPyV VP1 pentamer (30-300) F75W (BK polyomavirus (BKPyV)). The description is as above.

What is called stoichiometry N is the number of molecules, sites or subunits per partner or assembly. In the case of “BKPyV VP1 pentamer (30-300) S274A/T276A (domain or fragment)”, the stoichiometry N in assay [1] came to 5.
On to “BKPyV VP1 pentamer (30-300) T276A (domain or fragment)”, for which the stoichiometry N in assay [2] amounted to 5.
Consider “BKPyV VP1 pentamer (30-300) F75V (domain or fragment)”, for which the stoichiometry N in assay [3] was found to be 5.
In the case of `CC(=O)N[C@H]1[C@H](O[C@@H]2[C@H](O[C@]3(C(=O)O)C[C@H](O)[C@@H](NC(C)=O)[C@H]([C@H](O)[C@H](O)CO)O3)[C@@H](O)[C@H](O[C@H]3[C@H](O)[C@@H](O)C(O)O[C@@H]3CO)O[C@@H]2CO)O[C@H](CO)[C@H](O)[C@@H]1O[C@@H]1O[C@H](CO)[C@H](O)[C@H](O)[C@H]1O` (stereo partly drawn) [GM1, GM1 oligosaccharide], the “STD NMR” value in [4] was “as efficient as for the SV40 VP1-GM1 pair, which was included for comparison”.
As to “BKPyV VP1 pentamer (amino acids 30-300 of BKPyV VP1, His-tag cleaved) (domain or fragment)”, in assay [5], the stoichiometry N amounted to 5.
For the molecule “BKPyV VP1 pentamer (30-300) H138A (domain or fragment)”, in [6], the stoichiometry N came out at 5.
“BKPyV VP1 pentamer (30-300) S274A (domain or fragment)” displayed a stoichiometry N in [7] of 5.
The molecule “BKPyV VP1 pentamer (30-300) L62W (domain or fragment)” gave a stoichiometry N in assay [8] of 5.
For the molecule “BKPyV VP1 pentamer (30-300) F75W (domain or fragment)”, in [9], the stoichiometry N amounted to 5.
